Measurements reported in PMC12786146.

Target: MARY-MVP (protamine-tagged human major vault protein)
Experiment: dynamic light scattering; DLS radii at varying MARY-MVP (0 to 7.3 nM) with INT-CFP fixed at 8.3 nM, pH 6.5 phosphate buffer, 50 mM NaCl, 1.5 mM MgCl2, after concentration

concentration of the transition from monomer to VLP: 5 nM
Substance: MARY-MVP (protamine-tagged human major vault protein)
